From publication PMC7430982 (Proceedings of the National Academy of Sciences of the …, 2020)
Numbering of substitutions follows the chain as printed. In names and notes the source's numbering stands.

Columns and labels:
cross-linking = molecular target: the molecule itself; assay: cross-linking
cryo-EM structure = molecular target: the molecule itself; assay: cryo-EM structure
crystal structure = molecular target: the molecule itself; assay: crystal structure

B1: NaAtm1 A527C (natural protein)
chain: MPPETATNPKDARHDGWQTLKRFLPYLWPADNAVLRRRVVGAILMVLLGKATTLALPFAYKKAVDAMTLGGGAQPALTVALAFVLAYALGRFSGVLFDNLRNIVFERVGQDATRHLAENVFARLHKLSLRFHLARRTGEVTKVIERGTKSIDTMLYFLLFNIAPTVIELTAVIVIFWLNFGLGLVTATILAVIAYVWTTRTITEWRTHLREKMNRLDGQALARAVDSLLNYETVKYFGAESREEARYASAARAYADAAVKSENSLGLLNIAQALIVNLLMAGAMAWTVYGWSQGKLTVGDLVFVNTYLTQLFRPLDMLGMVYRTIRQGLIDMAEMFRLIDTHIEVADVPNAPALVVNRPSVTFDNVVFGYDRDREILHGLSFEVAAGSRVAIVGPSGAGKSTIARLLFRFYDPWEGRILIDGQDIAHVTQTSLRAALGIVPQDSVLFNDTIGYNIAYGRDGASRAEVDAAAKGAAIADFIARLPQGYDTEVGERGLKLSGGEKQRVAIARTLVKNPPILLFDEATSCLDTRTEQDILSTMRAVASHRTTISIAHRLSTIADSDTILVLDQGRLAEQGSHLDLLRRDGLYAEMWARQAAESAEVSEAAE
modifications: disulfide between the two equivalent C527 residues of the dimer (crosslinking yield ~70%)
cross-linking
  crosslinking yield: ~70%

B2: NaAtm1 (ABC transporter of mitochondria homolog from Novosphingobium aromaticivorans), wild type (natural protein)
chain: B1 chain with C527A
cryo-EM structure
  binding result: binds

B3: NaAtm1 E523Q (ATP-hydrolysis-deficient Walker-B mutant) (natural protein)
chain: B1 chain with E523Q, C527A
Crystal structure
  binding result: binds

B4: NaAtm1 S526C (natural protein)
chain: B1 chain with S526C, C527A
modifications: disulfide between the two equivalent C526 residues of the dimer (crosslinking yield ~70%)
cross-linking
  crosslinking yield: ~70%
